Experimental data from publication PMC9573856 (2022).

Target: T1, 3 × FLAG-aPKC (atypical protein kinase C subtype iota, PKCι), wild type, full length (Homo sapiens (Human), UniProt P41743)
T1 chain: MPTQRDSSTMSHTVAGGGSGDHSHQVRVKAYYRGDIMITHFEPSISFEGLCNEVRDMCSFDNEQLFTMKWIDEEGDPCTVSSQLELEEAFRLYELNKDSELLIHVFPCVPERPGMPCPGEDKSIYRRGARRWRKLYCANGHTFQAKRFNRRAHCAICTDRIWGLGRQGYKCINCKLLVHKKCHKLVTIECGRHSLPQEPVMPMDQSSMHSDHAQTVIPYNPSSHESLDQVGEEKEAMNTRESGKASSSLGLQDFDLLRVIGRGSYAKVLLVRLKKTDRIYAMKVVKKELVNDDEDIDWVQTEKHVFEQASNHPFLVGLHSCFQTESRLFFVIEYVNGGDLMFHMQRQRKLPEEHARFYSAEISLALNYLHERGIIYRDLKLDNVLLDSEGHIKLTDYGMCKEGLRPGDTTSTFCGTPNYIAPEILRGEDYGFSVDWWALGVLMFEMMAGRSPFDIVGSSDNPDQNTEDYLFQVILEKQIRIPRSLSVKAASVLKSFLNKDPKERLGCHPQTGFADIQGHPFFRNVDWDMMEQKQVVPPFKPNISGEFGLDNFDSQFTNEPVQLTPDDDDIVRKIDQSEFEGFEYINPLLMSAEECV
Experiment: co-expression, FLAG co-purification, SEC and glycerol gradient

binding result: binds
B1: PAR6 (PAR6α), untagged, full length (protein)
chain: MARPQRTPARSPDSIVEVKSKFDAEFRRFALPRASVSGFQEFSRLLRAVHQIPGLDVLLGYTDAHGDLLPLTNDDSLHRALASGPPPLRLLVQKREADSSGLAFASNSLQRRKKGLLLRPVAPLRTRPPLLISLPQDFRQVSSVIDVDLLPETHRRVRLHKHGSDRPLGFYIRDGMSVRVAPQGLERVPGIFISRLVRGGLAESTGLLAVSDEILEVNGIEVAGKTLDQVTDMMVANSHNLIVTVKPANQRNNVVRGASGRLTGPPSAGPGPAEPDSDDDSSDLVIENRQPPSSNGLSQGPPCWDLHPGCRHPGTRSSLPSLDDQEQASSGWGSRIRGDGSGFSL
